In a protein production outcome set (Wang et al. 2014):

Assay: label from the status in PepcDB records

Sequence	protein production
MKQMKFKYAYQLFFTQFIILLIACIMIGVLVSHSLKDYFYQSQVDDLTSYGQTISRDIRYSPQDATMQVLNTYQRILDVKKIHYTIKNANDETIYPTQMNQPLPKDFSISADDKKKLESGETVSKKIDNRFNKEMTIVYVPIMNGDKFVGSIVLNSPISGTEQVIGTINRYMFYTILLSITVALILSAILSKLQVNRINKLRAATKDVIQGNYNARLKENNFDEIGALAIDFNKMTQTLETSQEEIERQEKRRRQFIADVSHEMRTPLTTISGLTEGLVNDIIPKSETDRCIALIDTEARRLTKLVNENLDYEKIRSNKIKLQKTRFNGKEFLELIKEQLDYVASEKGNTITVAIDKDMAIYADYDRLTQVFINIVKNSVQFTENGQITLTGTQDYKESVLTITDTGIGMNTEELEQIWERFYKADMSRTNTAFGESGIGLSIVKQLIEYHDGSITVTSEPNKGTSFTIRLPFFQDNEQ	failed
MGFDFGTVLVFAVVAVGFALGGIAASRALGPKWPNPEKASIYECGERPVGVAWFNFNPRFYLVALVFLVFEVDIALTFPVVAVFKGWVAQGPGMAWVAFFELLVFTGILVVGLAWAWAHGDLEWIKTLGAPSEEAPARAEPRRAA	failed
MRILILGMGGTIASVKGERGYESALSVSKILKLAGISSEAKIEARDLMNVDSTLIQPSDWERLAKEIEKEVWEYDGIVITHGTDTMAYSASMLSFMLRNPPIPIVLTGSMLPITEKNSDAPFNLRTALEFVKLGIRGIYIAFNGKVMLGVRASKIRSMGFDAFESINYPNVAEIKDDKLRILHIPDFYGDEFFSDIKYEPKVLVIKLIPGLSGDIVREALRLGYKGIILEGYGVGGIPYRGTDLFEVVSSISKRIPVVLTTQAIYDGVDLQRYKVGRIALEAGVIPAGDMTKEATITKLMWILGHTKNIEEVKQLMGKNITGELTRVS	not failed
MAEEQQNSSYSIGGNILPTPEEAATFQPQVVAEGGWDKCWEDGVTPWDQGRATPLILHLLDSSALPLGRTLVPGCGGGHDVVAMASPERFVVGLDISDKALNKANETYGSSPKAEYFSFVKEDVFTWRPNELFDLIFDYVFFCAIEPEMRPAWGKSMHELLKPDGELITLMYPMTDHEGGAPYKVALSSYEDVLVPVGFKAVSVEENPDSIPTRKGKEKLARWKKIN	failed
MLVMKCSKCSAEAIYYAKYNGLYLCRDHFNEMIEGRVKKEIRKQVEFHGDDVTISVALSGGKDSSVTLFLLHKILGNRKNMKIKAFTVDEGIDGYRPSGLESAKRLCTSLGIDHETISFYDSYGLTLDSIVKTNPVKIPCAYCGPLRRKLINEMADKQDADYVALGLNLDDYSQSILMNVAKGDFDRFIRMSPQTDRKVGLVRRIAPLRTILEKEVVLYAVTNDIPFDSSWCPYYSRAQRNVFREVVNKLSEENPSTKFAILKFFDRVRENITTGHEEVKLKRCKICGAPTERDVCTACSSLQEVNEMMAEH	failed
MTPNNIVSRTEMDNGIQGFYKDKVVFLTGATGFLGKVIIEKLLRTTEVKRIYAMMRPKRGKDIQERLAIWQKDPLFEVLLKAKPDALKRIFVIAGDCLDPDLGINRSDRKLLVSEVHIVIHGAATVRFNEPLHVALAINTRGTRLMLQLAKEMLQLEAYLHISTAFSNCVIFRIEEKFYPEHLTCDANSVLAMSELLSEQMMDKLAPTLVGNFPNTYTYTKALAEDVVLREFGDLPLSIFRPSVIIATHEEPVSGWIDNLYGPIAHIYGVSHGVLRLTTYDKDGYASLVPVDYCANAALASIWQTSKDKSQRNAISQPAIYTLAPSEKNLLLNTDFIKHSLIHRNDFPLTKMIWYPFVHNISNPRIFPLAAFFYHTLPGYFYDLALRLSGRKPRLVKLYRSIHANIAVLEHFMNNSWHFETKSTDRLRVMMSPEDRRLYNFDMETLDWKEYFRKALFGMRLYLTKEPPTQESLEQGRRLFYRWLLIVDACQVIYLI	failed
